Patent publication US20220213196A1 (GRITSTONE BIO, published 2022)
Positions count from the first letter of the chain named. Each block holds one binder with its values, some of them ahead of it.

Columns and labels:
[1] = target: T1, HLA-A*02:01_… (HLA-PEPTIDE target G8), recombinant soluble complex (human, UniProt P04439 25-297 at identity 0.94); P61769 21-119, enzymatically biotinylated (BirA) for screening and functional assays); test: scFv PPE ELISA
T1 construct: Also crystallised with Fab G8-P1C11

[2] = target: HLA-A*01:01_… (HLA-PEPTIDE target G10), recombinant soluble complex (human, UniProt P04439-2 25-297; P61769 21-119, enzymatically biotinylated (BirA) for screening and functional assays); test: scFv PPE ELISA

B1: scFv R3G8-P5F02 (scFv, V domains shown)
VH: QVQLVQSGAEVKKPGASVKVSCKASGYTFTGYYIHWVRQAPGQGLEWMGVINPSGGSTTYAQKLQGRVTMTRDTSTSTVYMELSSLRSEDTAVYYCARDRDSSWTYYYYGMDVWGQGTTVTVSS
VL: EIVMTQSPATLSVSPGERATLSCRASQSVGNSLAWYQQKPGQAPRLLIYGASTRATGIPARFSGSGSGTEFTLTISSLQSEDFAVYYCQQYGSSPYTFGQGTKVEIK
fold binding to target pHLA over minipool of negative control pHLAs [1]: ≥ 3 fold

B3: scFv R3G10-P1E12 (scFv, V domains shown)
VH: QVQLVQSGAEVKKPGASVKVSCKASGYIFTGYYMHWVRQAPGQGLEWMGMIGPSDGSTSYAQKFQGRVTMTRDTSTSTVYMELSSLRSEDTAVYYCAREDDSMDVWGKGTTVTVSS
VL: not shown
fold binding to target pHLA over minipool of negative control pHLAs [2]: ≥ 3 fold

B6: scFv R3G8-P2E04 (scFv, V domains shown)
VH: QVQLVQSGAEVKKPGSSVKVSCKASGGTFSSYGVSWVRQAPGQGLEWMGWISPYSGNTDYAQKFQGRVTITADESTSTAYMELSSLRSEDTAVYYCARGLYYMDVWGKGTTVTVSS
VL: DIQMTQSPSSLSASVGDRVTITCRASQSISSWLAWYQQKPGKAPKLLIYDASNLETGVPSRFSGSGSGTDFTLTISSLQPEDFATYYCQQSYSTPLTFGGGTKLEIK
fold binding to target pHLA over minipool of negative control pHLAs [1]: ≥ 3 fold

B8: scFv G8-P1C01 (scFv, V domains shown)
VH: QVQLVQSGAEVKKPGASVKVSCKASGGTFSSHAISWVRQAPGQGLEWMGVIIPSGGTSYTQKFQGRVTMTRDTSTSTVYMELSSLRSEDTAVYYCARGDYYDSSGYYFPVYFDYWGQGTLVTVSS
VL: B6 VL with S28N, S30Y, S31T, W32Y, A34N, S91A, Y92N, S93G, T94F, L104V
fold binding to target pHLA over minipool of negative control pHLAs [1]: ≥ 3 fold

B9: scFv G8-P2C11 (scFv, V domains shown)
VH: QVQLVQSGAEVKKPGASVKVSCKASGYTFTSYAMNWVRQAPGQGLEWMGWINPNSGGTNYAQKFQGRVTMTRDTSTSTVYMELSSLRSEDTAVYYCARDPFWSGHYYYYGMDVWGQGTTVTVSS
VL: not shown
fold binding to target pHLA over minipool of negative control pHLAs [1]: ≥ 3 fold

B10: scFv G8-P2E06 (scFv, V domains shown)
VH: QVQLVQSGAEVKKPGASVKVSCKASGYTLTTYYMHWVRQAPGQGLEWMGWINPNSGGTNYAQKFQGRVTMTRDTSTSTVYMELSSLRSEDTAVYYCARAVYYDFWSGPFDYWGQGTLVTVSS
VL: DIQMTQSPSSLSASVGDRVTITCRASQGISNSLAWYQQKPGKAPKLLIYAASSLQSGVPSRFSGSGSGTDFTLTISSLQPEDFATYYCQQANSFPWTFGQGTKLEIK
fold binding to target pHLA over minipool of negative control pHLAs [1]: ≥ 3 fold

B11: scFv R3G8-P5C03 (scFv, V domains shown)
VH: QVQLVQSGAEVKKPGASVKVSCKASGYTFTSYYMHWVRQAPGQGLEWMGWMNPNSGNTGYAQKFQGRVTMTRDTSTSTVYMELSSLRSEDTAVYYCARGLLGFGEFLTYGMDVWGQGTLVTVSS
VL: B10 VL with S32W, S53T, A91T, N92Y, F94T
fold binding to target pHLA over minipool of negative control pHLAs [1]: ≥ 3 fold

B12: scFv R3G10-P1A07 (scFv, V domains shown)
VH: EVQLLESGGGLVKPGGSLRLSCAASGFTFSSYWMSWVRQAPGKGLEWVSGISARSGRTYYADSVKGRFTISRDDSKNTLYLQMNSLKTEDTAVYYCARDQDTIFGVVITWFDPWGQGTLVTVSS
VL: B10 VL with S32Y, S56G, A91Y, N92F, S93T, F94T, W96Y
fold binding to target pHLA over minipool of negative control pHLAs [2]: ≥ 3 fold

B13: scFv R3G10-P1F06 (scFv, V domains shown)
VH: B3 VH with I28T, T30I, E99D, D100S, D101S, S102G, M103L, V105P, K108Q, T111L
VL: B10 VL with G28S, S32Y, A34N, A50K, Q55E, A91S, N92Y, S93I, F94I, W96Y
fold binding to target pHLA over minipool of negative control pHLAs [2]: ≥ 3 fold

B14: scFv R3G10-P1B07 (scFv, V domains shown)
VH: QVQLVQSGAEVKKPGASVKVSCKASGYTFTSYYMHWVRQAPGQGLEWMGIIHPGGGTTSYAQKFQGRVTMTRDTSTSTVYMELSSLRSEDTAVYYCARDKVYGDGFDPWGQGTLVTVSS
VL: B10 VL with G28S, N31R, S32W, Y49F, A50D, S53R, N92E, S93A, W96Y, L104V
fold binding to target pHLA over minipool of negative control pHLAs [2]: ≥ 3 fold

B15: scFv R3G8-P4F05 (scFv, V domains shown)
VH: QVQLVQSGAEVKKPGASVKVSCKASGYTFSNMYLHWVRQAPGQGLEWMGWINPNTGDTNYAQTFQGRVTMTRDTSTSTVYMELSSLRSEDTAVYYCARGLYGDYFLYYGMDVWGQGTKVTVSS
VL: B10 VL with S32Y, S53T, A91S, N92Y, F94T, W96L, Q100G, L104V
fold binding to target pHLA over minipool of negative control pHLAs [1]: ≥ 3 fold

B16: scFv R3G10-P1H01 (scFv, V domains shown)
VH: B3 VH with I28T, E99G, D100V, D101G, S102N, M103L, V105Y, K108Q, T111L
VL: B10 VL with G28S, S32Y, A34N, Q89H, A91T, N92Y, F94T, W96L, L104V
fold binding to target pHLA over minipool of negative control pHLAs [2]: ≥ 3 fold

B18: scFv R3G10-P1H08 (scFv, V domains shown)
VH: QVQLVQSGAEVKKPGASVKVSCKASGVTFSTSAISWVRQAPGQGLEWMGWISPYNGNTDYAQMLQGRVTMTRDTSTSTVYMELSSLRSEDTAVYYCARDAHQYYDFWSGYYSGTYYYGMDVWGQGTTVTVSS
VL: B10 VL with S32Y, A50S, S53N, N92Y, L104V
fold binding to target pHLA over minipool of negative control pHLAs [2]: ≥ 3 fold

B19: scFv R3G10-P2G11 (scFv, V domains shown)
VH: QVQLVQSGAEVKKPGASVKVSCKASGGTFSTHDINWVRQAPGQGLEWMGVINPSGGSAIYAQKFQGRVTMTRDTSTSTVYMELSSLRSEDTAVYYCARDRGYSYGYFDYWGQGTLVTVSS
VL: B10 VL with G28D, N31R, S32Y, A50D, S53N, Q55E, S56T, W96R, L104V
fold binding to target pHLA over minipool of negative control pHLAs [2]: ≥ 3 fold

B20: scFv R3G8-P2C10 (scFv, V domains shown)
VH: QVQLVQSGAEVKKPGASVKVSCKASGYTFTSYYMHWVRQAPGQGLEWMGWINPYSGGTNYAQKFQGRVTMTRDTSTSTVYMELSSLRSEDTAVYYCAKGGIYYGSGSYPSWGQGTLVTVSS
VL: B10 VL with G28D, I29V, N31T, S32W, A91S, N92H, F94T, W96Q, L104V
fold binding to target pHLA over minipool of negative control pHLAs [1]: ≥ 3 fold

B21: scFv R3G8-P5G08 (scFv, V domains shown)
VH: B15 VH with S30T, N31S, M32N, L34M, I51M, T55S, D57N, N59G, T63K, K118T
VL: not shown
fold binding to target pHLA over minipool of negative control pHLAs [1]: ≥ 3 fold

B25: scFv R3G10-P2C04 (scFv, V domains shown)
VH: QVQLVQSGAEVKKPGASVKVSCKASGGTFSNSIINWVRQAPGQGLEWMGWMNPNSGNTNYAQKFQGRVTMTRDTSTSTVYMELSSLRSEDTAVYYCAREQWPSYWYFDLWGRGTLVTVSS
VL: not shown
fold binding to target pHLA over minipool of negative control pHLAs [2]: ≥ 3 fold

Further lines, results first:

fold binding to target pHLA over minipool of negative control pHLAs [2]: ≥ 3 fold
B2: scFv R3G10-P4E07 (scFv, V domains shown)
VH: QVQLVQSGAEVKKPGSSVKVSCKASGYTFTGYYMHWVRQAPGQGLEWMGRISPSDGSTTYAPKFQGRVTITADESTSTAYMELSSLRSEDTAVYYCARDMGDAFDIWGQGTTVTVSS
VL: not shown

fold binding to target pHLA over minipool of negative control pHLAs [2]: ≥ 3 fold
B4: scFv R3G10-P4C05 (scFv, V domains shown)
VH: B3 VH with I28T, M50I, S59T, E99A, D100E, D101N, S102G, K108Q
VL: DIQMTQSPSSLSASVGDRVTITCRASQRISSYLNWYQQKPGKAPKLLIYSASTLQSGVPSRFSGSGSGTDFTLTISSLQPEDFATYYCQQSYSTPFTFGPGTKVDIK

fold binding to target pHLA over minipool of negative control pHLAs [2]: ≥ 3 fold
B5: scFv R3G10-P4E12 (scFv, V domains shown)
VH: B3 VH with I28T, K63R, D100E, S102G, K108Q
VL: B10 VL with N31T, S32Y, A50D, A91Y, N92Y, F94Y, K103R

fold binding to target pHLA over minipool of negative control pHLAs [2]: ≥ 3 fold
B7: scFv R3G10-P4D10 (scFv, V domains shown)
VH: B3 VH with I28T, M34L, E99D, D100G, S102A, M103F, V105I, K108Q, T111M
VL: B6 VL with S28G, L104V

fold binding to target pHLA over minipool of negative control pHLAs [2]: ≥ 3 fold
B17: scFv R3G10-P3E04 (scFv, V domains shown)
VH: QVQLVQSGAEVKKPGASVKVSCKASGNTFIGYYVHWVRQAPGQGLEWVGIINPNGGSISYAQKFQGRVTMTRDTSTSTVYMELSSLRSEDTAVYYCARGSGDPNYYYYYGLDVWGQGTTVTVSS
VL: B10 VL with R24Q, G28D, S32Y, A34N, S53N, F94L, W96Y, L104V

fold binding to target pHLA over minipool of negative control pHLAs [2]: ≥ 3 fold
B22: scFv R3G10-P4D04 (scFv, V domains shown)
VH: QVQLVQSGAEVKKPGASVKVSCKASGYTFTGYYVHWVRQAPGQGLEWMGIIAPSDGSTNYAQKFQGRVTMTRDTSTSTVYMELSSLRSEDTAVYYCARDPGGYMDVWGKGTTVTVSS
VL: DIQMTQSPSSLSASVGDRVTITCRASQSISSYLAWYQQKPGKAPKLLIYDASKLETGVPSRFSGSGSGTDFTLTISSLQPEDFATYYCQQSYGVPTFGQGTKLEIK

fold binding to target pHLA over minipool of negative control pHLAs [2]: ≥ 3 fold
B23: scFv R3G10-P4A02 (scFv, V domains shown)
VH: QVQLVQSGAEVKKPGASVKVSCKASGYTLSYYYMHWVRQAPGQGLEWMGMIGPSDGSTSYAQRFQGRVTMTRDTSTGTVYMELSSLRSEDTAVYYCARDTGDHFDYWGQGTLVTVSS
VL: not shown

fold binding to target pHLA over minipool of negative control pHLAs [2]: ≥ 3 fold
B24: scFv R3G10-P4G06 (scFv, V domains shown)
VH: B23 VH
VL: not shown
notes: VH and VL as printed equal those of R3G10-P4A02
